Experimental data reported in US20240409629A1 (CHIA TAI TIANQING PHARMACEUTICAL GROUP, published 2024).
Substitutions are numbered along the chain they refer to. Like-named read-outs stand apart in the source and are kept apart here. Blank lines part the entries; values can stand above or below the binder they belong to.

What was measured:
human CLDN18.2 [1] = biological target: T1, human CLDN18.2 (human); experiment: FACS, KATOIII cells (natural CLDN18.2)
T1 construct: also called claudin18.2
Description: (§1) Based on the FACS method, the binding activity of anti-CLDN18.2 humanized antibodies for the cell lines KATOIII (Cell Bank of the Chinese Academy of Sciences) and NUGC-4 (Cell Bank of the Chinese Academy of Sciences) naturally expressing CLDN18.2 was analyzed. […] See Example 3 for the specific method.

human CLDN18.2 [2] = biological target: T1, human CLDN18.2; experiment: FACS, NUGC-4 cells (natural CLDN18.2)
Description: as §1

human CLDN18.2 [3] = biological target: T1, human CLDN18.2; experiment: cell-based or functional assay
human CLDN18.2 [4] = biological target: T1, human CLDN18.2; experiment: cell-based or functional assay; remark: listed apart in the source
human CLDN18.2 [5] = biological target: T1, human CLDN18.2; experiment: cell-based or functional assay; remark: listed apart in the source
human CLDN18.2 [6] = biological target: T1, human CLDN18.2; experiment: cell-based or functional assay; remark: listed apart in the source
human CLDN18.2 [7] = biological target: T1, human CLDN18.2; experiment: FACS, NUGC-4 cells (natural CLDN18.2); remark: listed apart in the source
Description: as §1

human CLDN18.2 [8] = biological target: T1, human CLDN18.2; experiment: cell-based or functional assay; remark: listed apart in the source
human CLDN18.2 [9] = biological target: T1, human CLDN18.2; experiment: FACS, KATOIII cells (natural CLDN18.2); remark: listed apart in the source
Description: as §1

human CLDN18.1 [10] = biological target: T2, human CLDN18.1 (human, UniProt P56856 1-261); experiment: FACS, U2OS-CLDN18.1 cells; MFI against 2-fold the IgG1 isotype control
T2 construct: also called claudin18.1
Description: (§2) Based on the FACS method, the binding activity of anti-CLDN18.2 antibodies for the cell line U2OS-CLDN18.1 overexpressing CLDN18.1 (SEQ ID NO: 2) was analyzed. The cell concentration was adjusted with PBS, and the U2OS-CLDN18.1 cells were added to a 96-well plate at 3×10⁵ cells/well, then the test antibodies were added to each well of the 96-well plate, the final concentration of the antibody was 200 nM, and the mixture was incubated at 4° C. for 60 min. The supernatant was discarded, the cells were washed 3 times with pre-cooled PBS buffer, PE-Goat Anti-Human IgG Fcγ (Jackson immunoresearch, Cat. No. 109-116-170) diluted at 1:200 was added at 100 μL/well, and the mixture was incubated at 4° C. for 30 min. Cells were washed 3 times with pre-cooled PBS buffer and resuspended in 100 μL of PBS buffer, and then the fluorescence signals were detected using a flow cytometer (Sartorius, iQUE3). The nonspecific binding of the anti-CLDN18.2 antibodies for U2OS-CLDN18.1 cells was measured by mean fluorescence intensity (MFI) of staining. The IgG1 isotype control antibody (prepared in-house, with the heavy and light chain amino acid sequences as set forth in SEQ ID NOs: 67 and 68 in the present disclosure) was used as the control, and 2-fold the IgG1 isotype control antibody was used as the benchmark, thus determining the presence or absence of nonspecific binding.

human CLDN18.2 [11] = biological target: T1, human CLDN18.2; experiment: cell-based or functional assay; remark: listed apart in the source
human CLDN18.2 [12] = biological target: T1, human CLDN18.2; experiment: FACS, KATOIII cells (natural CLDN18.2); remark: listed apart in the source
Description: (§3) Based on the FACS method, the binding activity of anti-CLDN18.2 antibodies for the cell line U2OS-CLDN18.2 overexpressing CLDN18.2 and the cell lines KATOIII (Cell Bank of the Chinese Academy of Sciences) and NUGC-4 (Cell Bank of the Chinese Academy of Sciences) naturally expressing CLDN18.2 was analyzed.
(§4) The cell concentration was adjusted with PBS, and cells (U2OS-CLDN18.2, KATOIII, or NUGC-4 cells) were added to a 96-well plate at 3×10⁵ cells/well, then the test antibodies at different concentrations were added to each well of the 96-well plate, and the mixture was incubated at 4° C. for 60 min. […] The supernatant was discarded, the cells were washed 3 times with pre-cooled PBS buffer, PE-Goat Anti-Human IgG Fcγ (Jackson immunoresearch, Cat. No. 109-116-170) diluted at 1:200 was added at 100 μL/well, and the mixture was incubated at 4° C. for 30 min. Cells were washed 3 times with pre-cooled PBS buffer and resuspended in 100 μL of PBS buffer, and then the fluorescence signals were detected using a flow cytometer (Sartorius, iQUE3). The binding ability of the anti-CLDN18.2 antibodies for CLDN18.2 was measured by mean fluorescence intensity (MFI) of staining.

human CLDN18.2 [13] = biological target: T1, human CLDN18.2; experiment: cell-based or functional assay; remark: listed apart in the source
human CLDN18.2 [14] = biological target: T1, human CLDN18.2; experiment: cell-based or functional assay; remark: listed apart in the source
human CLDN18.1 [15] = biological target: T2, human CLDN18.1; experiment: FACS, U2OS-CLDN18.1 cells, antibody at 200 nM
Description: as §2

human CLDN18.2 [16] = biological target: T1, human CLDN18.2; experiment: FACS, NUGC-4 cells (natural CLDN18.2); remark: listed apart in the source
Description: as §3, §4

human CLDN18.2 [17] = biological target: T1, human CLDN18.2; experiment: FACS, U2OS-CLDN18.2 cells
Description: as §3, §4

B1: humanized antibody hz40F6-2.3 (antibody, human IgG1, kappa, V domains shown)
VH: QVQLVESGGGVVQPGRSLRLSCAASGFTLTSYGVYWVRQAPGKGLEWVAVVWAGGNTNYADALKGRFTISKDNSKSTLYLQMNSLRAEDTAVYYCARDRGRLLAMDYWGQGTLVTVSS
VL: DIVMTQSPDSLAVSLGERATINCKSSQSLLNSGNQKNYLAWYQQKPGQPPKLLIYGASTRESGVPDRFSGSGSGTDFTLTISSLQAEDVAVYYCQNDYFFPFTFGQGTKVEIKR
EC50 (human CLDN18.2 [1]): 6.13 nM | EC50 (human CLDN18.2 [2]): 16.2 nM | ADCC EC50, Jurkat-CD16a v158-NFAT-luciferase effector cells, NIH-3T3-CLDN18.2 target cells (human CLDN18.2 [3]): 0.014 nM | ADCC EC50, Jurkat-CD16a v158-NFAT-luciferase effector cells, NUGC-4 target cells (human CLDN18.2 [3]): 0.028 nM | CDC EC50, NIH-3T3-CLDN18.2 target cells (human CLDN18.2 [4]): 0.9 nM

B2: humanized antibody hz28G3-1.3 (antibody, human IgG1, kappa, V domains shown)
VH: QVQLVQSGAEVKKPGASVKVSCKTSGYSFTDYLMLWVRQAHGQSLEWMGNINPYYGRTTYALKFKGRVTMTVDRSTSTVYMELSSLRSEDTAVYYCARDGYSLRNAMDYWGQGTLVTVSS
VL: B1 VL with L30F, D97A, Y98H, F99S, F100Y, F102Y
CDC EC50, NIH-3T3-CLDN18.2 target cells (human CLDN18.2 [5]): 0.31 nM | ADCC EC50, Jurkat-CD16a v158-NFAT-luciferase effector cells, KATOIII target cells (human CLDN18.2 [6]): 0.217 nM | ADCC EC50, Jurkat-CD16a v158-NFAT-luciferase effector cells, U2OS-CLDN18.2 target cells (human CLDN18.2 [6]): 0.023 nM | EC50 (human CLDN18.2 [7]): 10.5 nM | ADCC EC50, PBMC effector cells, KATOIII target cells (human CLDN18.2 [8]): 1.03 nM | ADCC EC50, PBMC effector cells, NIH-3T3-CLDN18.2 target cells (human CLDN18.2 [8]): 0.51 nM | ADCC EC50, PBMC effector cells, NUGC-4 target cells (human CLDN18.2 [8]): 4.6 nM | ADCC Maximum killing (%), PBMC effector cells, KATOIII target cells (human CLDN18.2 [8]): 25.3% | ADCC Maximum killing (%), PBMC effector cells, NIH-3T3-CLDN18.2 target cells (human CLDN18.2 [8]): 44.3% | ADCC Maximum killing (%), PBMC effector cells, NUGC-4 target cells (human CLDN18.2 [8]): 19% | EC50 (human CLDN18.2 [9]): 7.01 nM

Second part, led by results:

binding result (human CLDN18.1 [10]): no binding (tested: 200 nM) | CDC EC50, KATOIII target cells (human CLDN18.2 [11]): 0.103 nM | CDC EC50, U2OS-CLDN18.2 target cells (human CLDN18.2 [11]): 2.09 nM | EC50 (human CLDN18.2 [12]): 3.68 nM | ADCC EC50, Jurkat-CD16a v158-NFAT-luciferase effector cells, KATOIII target cells (human CLDN18.2 [13]): 0.02 nM | ADCC EC50, Jurkat-CD16a v158-NFAT-luciferase effector cells, NUGC-4 target cells (human CLDN18.2 [13]): 0.083 nM | ADCC EC50, Jurkat-CD16a v158-NFAT-luciferase effector cells, U2OS-CLDN18.2 target cells (human CLDN18.2 [13]): 0.02 nM | ADCC EC50, PBMC effector cells, NUGC-4 target cells (human CLDN18.2 [14]): 0.68 nM | MFI (human CLDN18.1 [15]): 8940 | EC50 (human CLDN18.2 [16]): 20 nM | EC50 (human CLDN18.2 [17]): 25.1 nM
B3: chimeric antibody xi22F12 (antibody, human IgG1, kappa, V domains shown)
VH: QVQLKESGPGLVAPSQSLSITCTVSGFSLTSYGVYWVRQPPGKGLEWLGVIWAGGSTNYNSALMSRLSINKDNSKSQVFLKMNSLQTDDTAMYYCARDRGRLLSMDYWGQGTSVTVSS
VL: DIVMTQSPSSLSVSAGEKVTMSCRSSQSLLNSGNQKNYLAWYQQKPGQPPKLLIYGASTRESGVPDRFTGSGSGTDFTLTIGSVQAEDLAVYYCQNVHFFPFTFGSGTKLEIKR
notes: Mouse variable regions on human IgG1/kappa; defucosylated, expressed in FUT8-knockout CHO-S cells; also called chimeric 22F12
ADCC Maximum killing (%), PBMC effector cells, NUGC-4 target cells (human CLDN18.2 [14]): 46.1%

binding result (human CLDN18.1 [10]): no binding (tested: 200 nM) | CDC EC50, U2OS-CLDN18.2 target cells (human CLDN18.2 [11]): 11.4 nM | EC50 (human CLDN18.2 [12]): 13.9 nM | MFI (human CLDN18.1 [15]): 8030 | EC50 (human CLDN18.2 [16]): 512 nM | EC50 (human CLDN18.2 [17]): 19.5 nM
B4: chimeric antibody xi10D8 (antibody, human IgG1, kappa, V domains shown)
VH: QIQLAQSGPELKKPGETVKVSCKASGYTFKNYGMNWVKQAPGKGLKWMGWININTGEPRYAEEFKGRIAFSLETSASTAYLLINNLKNEDTATYFCARYGYGNSFPYWGQGTLVTVSA
VL: DIVMTQSPSSLTVTVGEKVTMSCKSSQSLLNSGNQRNYLTWYQQKPGQPPKLLIYWASTRESGVPDRFTGSGSGTAFTLTVSSVQAEDLAVYYCQNDYSYPLTFGAGTKLEMKR
notes: Mouse variable regions on human IgG1/kappa; defucosylated, expressed in FUT8-knockout CHO-S cells; also called chimeric 10D8
